Measurements reported in the supplement of paper PMC7877785.
± gives the uncertainty stated by the source.

Experiment: self-splicing fitness, log relative to wild type (ln ratio); higher = more splicing; Tetrahymena group I intron in knt gene, E. coli kanamycin selection, DiMSum; sequences stand for … in CUCUCU…GGAGGGAAAAGUUAUCAGGCAUGCACCUGGUAGCUAGUCUUUAAACCAAUAGAUUGCAUCGGUUUAAAAGGCAAGACCGUCAAAUUGCGGGAAAGGGGUCAACAGCCGUUCAGUACCAAGUCUCAGGGGAAACUUUGAGAUGGCCUUGCAAAGGGUAUGGUAAUAAGCUGACGGACAUGGUCCUAACCACGCAGCCAAGUCCUAAGUCAACAGAUCUUCUGUUGAUAUGGAUGCAGUUCACAGACUAAAUGUCGGUCGGGGAAGAUGUAUUCUUCUCAUAAGAUAUAGUCGGACCUCUCCUUAAUGGGAGCUAGCGGAUGAAGUGAUGCAACACUGGAGCCGCUGGGAACUAAUUUGUAUGCGAAAGUAUAUUGAUUAGUUUUGGAGUACUCGUGGUCG
Method in brief: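 Pooled colonies went to amplicon sequencing on an Illumina HiSeq 2500 after six replicate transformations. The plates were LB agar with 100 μg/mL carbenicillin, 50 μM IPTG and 0.2% rhamnose, with or without 25 μg/mL kanamycin, incubated overnight at 37°C or 30°C. The E. coli BL21(DE3) library had all eight P1ex-region intron nucleotides randomised, the intron placed in the knt kanamycin-resistance gene on pET-22b(+). DiMSum fitness is the error-weighted combination of replicate fold changes, kanamycin against none, normalised to wild type.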

Row | Sequence | self-splicing fitness (ln) (30 °C) | self-splicing fitness (ln) (37 °C)
1 | UAGCAGCAAUAUUACGUUAG | -3.08 ± 0.12 | -1.34 ± 0.13
2 | AACUAGCAAUAUUACGCAGA | -3.43 ± 0.37 | -0.413 ± 0.15
3 | UAGCAGCAAUAUUACGCUUA | -0.452 ± 0.084 | -0.689 ± 0.087
4 | CCCAAGCAAUAUUACGCAGG | -2.94 ± 0.2 | -2.7 ± 0.48
5 | UCAAAGCAAUAUUACGGAUC | -3.94 ± 0.41 | -3.23 ± 0.4
6 | CUUAAGCAAUAUUACGCAAG | -3.07 ± 0.41 | -2.58 ± 0.34
7 | UGAUAGCAAUAUUACGAGCC | -3.7 ± 0.47 | –
8 | UUCAAGCAAUAUUACGCUCU | -1.37 ± 0.17 | 0.387 ± 0.21
9 | AACAAGCAAUAUUACGGGAG | -2.51 ± 0.093 | -1.96 ± 0.1
10 | GCUCAGCAAUAUUACGCUUG | -2.04 ± 0.11 | 0.227 ± 0.1
11 | ACGUAGCAAUAUUACGGUCC | -1.64 ± 0.15 | -0.357 ± 0.15
12 | UGCCAGCAAUAUUACGUAGC | -3.9 ± 0.37 | -1.64 ± 0.17
13 | GUAAAGCAAUAUUACGAGGG | -3.57 ± 0.24 | –
14 | GAGUAGCAAUAUUACGCACG | -1.77 ± 0.21 | –
15 | ACAUAGCAAUAUUACGGUAU | -3.6 ± 0.11 | -1.77 ± 0.11
16 | CGUGAGCAAUAUUACGCAAU | -2.52 ± 0.14 | -2.75 ± 0.25
17 | ACAUAGCAAUAUUACGUAAC | -3.65 ± 0.23 | -3.2 ± 0.35
18 | AAUAAGCAAUAUUACGACAG | -1.64 ± 0.13 | -0.432 ± 0.14
19 | GCAAAGCAAUAUUACGCAUA | -1.86 ± 0.14 | -1.43 ± 0.18
20 | GACGAGCAAUAUUACGAUUU | -0.943 ± 0.085 | -1.19 ± 0.098
21 | CGGGAGCAAUAUUACGUUCA | -3.69 ± 0.25 | -2.53 ± 0.26
22 | AUCCAGCAAUAUUACGUUGG | -4.05 ± 0.18 | -2.97 ± 0.16
23 | AAUCAGCAAUAUUACGUUGG | -2.06 ± 0.1 | -1 ± 0.1
24 | GCCGAGCAAUAUUACGAGGA | -1.32 ± 0.11 | -0.747 ± 0.1
25 | CUCAAGCAAUAUUACGAUUA | -3.59 ± 0.47 | -2.37 ± 0.23

Row | Sequence | self-splicing fitness (ln) (30 °C) | self-splicing fitness (ln) (37 °C)
26 | CUGGAGCAAUAUUACGGGAA | -2.68 ± 0.31 | -2.36 ± 0.27
27 | CAGUAGCAAUAUUACGGCGC | -1.59 ± 0.4 | -0.863 ± 0.25
28 | CUACAGCAAUAUUACGGUCC | -2.72 ± 0.18 | -2.15 ± 0.24
29 | UCCUAGCAAUAUUACGCCAU | -2.5 ± 0.3 | -0.725 ± 0.35
30 | CUGGAGCAAUAUUACGUGUA | -3.32 ± 0.32 | -1.57 ± 0.37
31 | UUUAAGCAAUAUUACGUGGG | -2.92 ± 0.13 | -2.1 ± 0.17
32 | CUGGAGCAAUAUUACGAGCU | – | -1.66 ± 0.46
33 | CUGAAGCAAUAUUACGUGGU | -3.3 ± 0.15 | -1.41 ± 0.18
34 | AGUUAGCAAUAUUACGUUUU | -3.11 ± 0.18 | -1.41 ± 0.15
35 | GAGAAGCAAUAUUACGACAU | -0.36 ± 0.013 | -0.137 ± 0.033
36 | GGAGAGCAAUAUUACGACGG | -2.35 ± 0.29 | -2.17 ± 0.36
37 | UAGAAGCAAUAUUACGGCGA | 0.119 ± 0.22 | -0.385 ± 0.24
38 | CCCUAGCAAUAUUACGUAAC | -3.66 ± 0.27 | -1.33 ± 0.18
39 | CAGGAGCAAUAUUACGAGCU | -3.44 ± 0.47 | -2.52 ± 0.41
40 | UUUGAGCAAUAUUACGGAUG | -2.66 ± 0.21 | –
41 | CUCUAGCAAUAUUACGAGGC | -3.18 ± 0.36 | –
42 | GAACAGCAAUAUUACGCACG | -1.38 ± 0.18 | 0.123 ± 0.13
43 | UUCAAGCAAUAUUACGGUAG | -0.693 ± 0.096 | -0.128 ± 0.13
44 | GAAAAGCAAUAUUACGGGGU | -3.91 ± 0.26 | -2.32 ± 0.23
45 | GACUAGCAAUAUUACGGGCG | -0.65 ± 0.061 | -0.282 ± 0.071
46 | AUUUAGCAAUAUUACGAUGA | -1.8 ± 0.14 | -0.68 ± 0.15
47 | GGCGAGCAAUAUUACGCCUG | -1.97 ± 0.43 | –
48 | AGAUAGCAAUAUUACGUGGU | -3.03 ± 0.11 | -2.27 ± 0.15
49 | UCGAAGCAAUAUUACGUUAA | -2.99 ± 0.19 | -0.482 ± 0.14
50 | AUCAAGCAAUAUUACGGGCU | -1.86 ± 0.079 | -0.884 ± 0.087
